We go through two molecules from article PMC12093852 (Cell Communication and Signaling : CCS, 2025).

Assay [1] has as its target C-X-C chemokine receptor type 4 (CXCR4), endogenous on SupT1 cells (human (endogenous in SupT1)) (UniProt P61073).
The target in assay [2] is CXCR4 N-terminally fused to Nanoluciferase (UniProt P61073). Description: FRET or BRET; NanoBRET ligand binding competition; HEK293T cells stably expressing the receptor N-terminally fused to Nanoluciferase; increasing concentrations of ligands with 10 nM CXCL12-AZ568; 2 h on ice. A general note: BRET reads energy transfer from a luciferase to a nearby fluorophore.
Assay [3] addresses ACKR3-LgBiT (UniProt P25106).
The target of assay [4] is CXCR4-LgBiT (UniProt P61073).
The target of assay [5] is T1, C-X-C chemokine receptor type 4 (CXCR4), endogenous on SupT1 cells (human (endogenous in SupT1), UniProt P61073 1-352). Kind of assay: flow cytometry on cells; competition with APC-conjugated anti-human CXCR4 antibody clone 12G5 (ECL-2) on 5 x 10^4 SupT1 cells; compounds serially diluted in cold PBS; 90 min at 4 °C; MFI normalized to full stain (100%) and unstained (0%). The note with it: one partner purified. (In flow cytometry, cells or beads pass a laser one at a time.)

In assay [6] the target is T2, CXCR4 N-terminally fused to Nanoluciferase (UniProt P61073 1-352).
T2 construct: also called CXCR4 fused to a Nanoluciferase
Description: FRET or BRET; NanoBRET ligand binding competition; HEK293T cells stably expressing the receptor N-terminally fused to Nanoluciferase; increasing concentrations of ligands with 10 nM CXCL12-AZ568; 2 h on ice. The note with it: one partner purified.

Assay [7] addresses T1, C-X-C chemokine receptor type 4 …. Kind of assay: flow cytometry on cells; competition with PE-conjugated anti-human CXCR4 antibody clone 1D9 (N-terminus) on 5 x 10^4 SupT1 cells; compounds serially diluted in cold PBS; 90 min at 4 °C; MFI normalized to full stain (100%) and unstained (0%). The note with it: one partner purified.

By IC50 is commonly meant the concentration that inhibits the measured activity by half. Low readings indicate higher potency, high ones lower potency. In the case of “C-X-C motif chemokine ligand 12 (CXCL12), unlabelled (from UniProt P48061 22-93)”, the inhibition of CXCR4-tropic HIV-1 infection of TZM-bl reporter cells in assay [1] was 47.9 nM. Besides, the concentration for half-maximal inhibition (IC50) in assay [2] stood at 36.7 nM. This molecule returned a β-arrestin-2 recruitment to ACKR3 (NanoBiT, HEK293T) in assay [3] of 30 nM. This molecule came in with a β-arrestin-2 recruitment to CXCR4 (NanoBiT, HEK293T) in assay [4] of 30 nM.

B1: G protein-coupled receptor 15 ligand (GPR15LG) (ligand, UniProt Q6UWK7 25-81, looked up)
chain: KRRPAKAWSGRRTRLCCHRVPSPNSTNLKGHHVRLCKPCKLEPEPRLWVVPGALPQV
notes: also called C10orf99; AP-57
As to B1, the IC50 in assay [5] was 1300 ± 100 nM; in assay [6] it was 829 ± 139 nM; in assay [7], about 12100 nM.
